Patent publication US20230357429A1 (JANUX THERAPEUTICS, published 2023)
Changes are numbered by the printed parent chain. Names and notes keep the numbering of the source.

T1: Human TROP2 ECD (31-274 AA) (human, UniProt P09758 31-274, biotinylated)
T1 construct: also called biotinylated TROP2; TROP2-biotin
T1 sequence: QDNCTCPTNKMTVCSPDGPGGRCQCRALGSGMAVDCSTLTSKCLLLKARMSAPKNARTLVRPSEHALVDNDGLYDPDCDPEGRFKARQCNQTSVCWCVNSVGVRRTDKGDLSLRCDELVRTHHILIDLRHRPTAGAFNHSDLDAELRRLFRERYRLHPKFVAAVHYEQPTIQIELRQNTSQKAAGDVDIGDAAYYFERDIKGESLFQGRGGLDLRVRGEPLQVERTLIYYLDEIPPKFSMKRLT

T2: Human TROP2 Full length (human, UniProt P09758 31-323)
T2 sequence: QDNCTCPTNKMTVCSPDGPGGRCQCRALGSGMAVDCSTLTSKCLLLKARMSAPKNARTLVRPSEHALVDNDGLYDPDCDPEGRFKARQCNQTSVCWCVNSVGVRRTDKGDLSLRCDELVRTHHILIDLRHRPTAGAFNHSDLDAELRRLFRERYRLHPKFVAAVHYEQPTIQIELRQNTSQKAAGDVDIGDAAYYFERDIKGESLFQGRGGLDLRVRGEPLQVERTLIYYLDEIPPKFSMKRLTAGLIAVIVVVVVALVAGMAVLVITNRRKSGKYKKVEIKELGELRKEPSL

T3: Cyno TROP2 Full length (cynomolgus monkey, UniProt P09758 31-323 (human entry))
T3 chain: T2 sequence with M32V, S63N, I200V, M262V, T268S

B1: PC-51 (bispecific antibody)
light: GGVDFCALYHWPICYQGGGGSGGLSGRSDAGSPLGLAGSGGSDIQLTQSPSSLSASVGDRVSITCKASQDVSIAVAWYQQKPGKAPKLLIYSASYRYTGVPDRFSGSGSGTDFTLTISSLQPEDFAVYYCQQHYITPLTFGAGTKVEIKRTVAAPSVFIFPPSDEQLKSGTASVVCLLNNFYPREAKVQWKVDNALQSGNSQESVTEQDSKDSTYSLSSTLTLSKADYEKHKVYACEVTHQGLSSPVTKSFNRGEC
heavy: not shown
notes: Masked polypeptide complex: anti-TROP2 F108A, anti-CD3 L232A
B2: PC-39 (bispecific antibody)
light: B1 light
heavy: EVQLVESGGGLVQPGGSLRLSCAASGSTFYTAVMGWVRQAPGKGLEWVAAIRWTALTTSYADSVKGRFTISRDGAKTTLYLQMNSLRPEDTAVYYCAARGTLGLFTTADSYDYWGQGTLVTVSSGGGGSGGGSGGYLCGPDGDETLACYGGGGSGGGLSGRSDAGSPLGLAGSGGGSEVQLVESGGGLVQPGGSLKLSCAASGFTFNKYAMNWVRQASGKGLEWVGRIRSKYNNYATYYADSVKDRFTISRDDSKNTAYLQMNSLKTEDTAVYYCVRHGNFGNSYISYWAYWGQGTLVTVSSGGGGSGGGGSGGGGSQTVVTQEPSFSVSPGGTVTLTCRSSTGAVTSGNYANWVQQTPGQAPRGLIGGTKFLAPGVPDRFSGSILGNKAALTITGAQADDESDYYCVLWYSNRWVFGGGTKLTVLGGGGSQVQLQQSGSELKKPGASVKVSCKASGYTFTNYGMNWVKQAPGQGLKWMGWINTYTGEPTYTDDFKGRFAFSLDTSVSTAYLQISSLKADDTAVYFCARGGFGSSYWYADVWGQGSLVTVSSASTKGPSVFPLAPSSKSTSGGTAALGCLVKDYFPEPVTVSWNSGALTSGVHTFPAVLQSSGLYSLSSVVTVPSSSLGTQTYICNVNHKPSNTKVDKKVEPKSC
notes: Masked polypeptide complex: anti-TROP2 F108A, anti-CD3 with P41S, A49G, N87S ; E227D; CD3 mask YLCGPDGDETLACY
B3: PC-43 (bispecific antibody)
light: B1 light
heavy: EVQLVESGGGLVQPGGSLRLSCAASGSTFYTAVMGWVRQAPGKGLEWVAAIRWTALTTSYADSVKGRFTISRDGAKTTLYLQMNSLRPEDTAVYYCAARGTLGLFTTADSYDYWGQGTLVTVSSGGGGSGGGSGGGSACLGPEWEVCPYGGGGSGGGLSGRSDAGSPLGLAGSGGGSEVQLVESGGGLVQPGGSLKLSCAASGFTFNKYAMNWVRQASGKGLEWVGRIRSKYNNYATYYADSVKDRFTISRDDSKNTAYLQMNSLKTEDTAVYYCVRHGNFGNSYISYWAYWGQGTLVTVSSGGGGSGGGGSGGGGSQTVVTQEPSFSVSPGGTVTLTCRSSTGAVTSGNYANWVQQTPGQAPRGLIGGTKFLAPGVPDRFSGSILGNKAALTITGAQADDESDYYCVLWYSNRWVFGGGTKLTVLGGGGSQVQLQQSGSELKKPGASVKVSCKASGYTFTNYGMNWVKQAPGQGLKWMGWINTYTGEPTYTDDFKGRFAFSLDTSVSTAYLQISSLKADDTAVYFCARGGFGSSYWYADVWGQGSLVTVSSASTKGPSVFPLAPSSKSTSGGTAALGCLVKDYFPEPVTVSWNSGALTSGVHTFPAVLQSSGLYSLSSVVTVPSSSLGTQTYICNVNHKPSNTKVDKKVEPKSC
notes: Masked polypeptide complex: anti-TROP2 F108A, anti-CD3 with P41S, A49G, N87S ; E227D
B4: PC-41 (bispecific antibody)
light: B1 light
heavy: B2 heavy with Y136V, L137Y, D141E, G142F, T145S, L146V, A147G, Y149A
notes: as for B3
B5: PC-52 (bispecific antibody)
light: B1 light
heavy: not shown
notes: Masked polypeptide complex: anti-TROP2 F108A, anti-CD3 N236A

Target: T4, CD3 (human, UniProt P07766 23-126, limits assumed, biotinylated)
T4 construct: also called biotinylated CD3; CD3-biotin
Assay: ELISA; biotinylated CD3 on neutravidin plates, PC titrated, HRP secondary

Binder | EC50
B1 | 410 nM
B2 | 136 nM
B3 | 60.7 nM
B4 | 230 nM
B5 | 242 nM

Target: T1, Human TROP2 ECD (31-274 AA)
Assay: ELISA; biotinylated TROP2 on neutravidin plates, PC titrated, HRP secondary

Binder | EC50
B1 | 1160 nM
B2 | 1090 nM
B3 | 587 nM
B4 | 1380 nM
B5 | 1210 nM

Target: T5, TBD-21 (HC F108A)
T5 construct: anti-TROP2 Fab, CDR3 HC alanine mutant
Assay: competition ELISA, Fab on captured TROP2

Binder | IC50
VDFCALYHWPVCGL (mask peptide for the TROP2 Fab) [Peptide-61] | 7750 nM
VDFCGLYHWPICYQ (mask peptide for the TROP2 Fab) [Peptide-8] | 2120 nM
VDFCALYHWPICYQ (mask peptide for the TROP2 Fab) [Peptide-43] | 1040 nM
VEFCAIYSWPICKI (mask peptide for the TROP2 Fab) [Peptide-46] | 25900 nM
VDFCAIYSWPICKI (mask peptide for the TROP2 Fab) [Peptide-50] | 3700 nM

Target: T6, TBD-1 wt (anti-TROP2 Fab, hRS7)
T6 construct: non-mutated Fab
Assay: competition ELISA, Fab on captured TROP2

Binder | IC50
VDFCALYHWPVCGL (mask peptide for the TROP2 Fab) [Peptide-61] | 1830 nM
VDFCALYHWPICYQ (mask peptide for the TROP2 Fab) [Peptide-43] | 270 nM
VEFCAIYSWPICKI (mask peptide for the TROP2 Fab) [Peptide-46] | 5140 nM
VDFCAIYSWPICKI (mask peptide for the TROP2 Fab) [Peptide-50] | 560 nM

Target: T7, TBD-22 (HC D109A)
T7 construct: anti-TROP2 Fab, CDR3 HC alanine mutant
Assay: competition ELISA, Fab on captured TROP2

Binder | IC50
VDFCALYHWPVCGL (mask peptide for the TROP2 Fab) [Peptide-61] | 260 nM
VDFCGLYHWPICYQ (mask peptide for the TROP2 Fab) [Peptide-8] | 100 nM
VDFCALYHWPICYQ (mask peptide for the TROP2 Fab) [Peptide-43] | 50 nM
VEFCAIYSWPICKI (mask peptide for the TROP2 Fab) [Peptide-46] | 700 nM
VDFCAIYSWPICKI (mask peptide for the TROP2 Fab) [Peptide-50] | 20 nM

Target: T8, TBD-6 (LC I93A)
T8 construct: anti-TROP2 Fab, CDR3 LC alanine mutant
Assay: competition ELISA, Fab on captured TROP2

Binder | IC50
VDFCALYHWPVCGL (mask peptide for the TROP2 Fab) [Peptide-61] | 1190 nM
VDFCGLYHWPICYQ (mask peptide for the TROP2 Fab) [Peptide-8] | 760 nM
VDFCALYHWPICYQ (mask peptide for the TROP2 Fab) [Peptide-43] | 480 nM
VEFCAIYSWPICKI (mask peptide for the TROP2 Fab) [Peptide-46] | 5180 nM
VDFCAIYSWPICKI (mask peptide for the TROP2 Fab) [Peptide-50] | 920 nM

Target: T9, TBD-17 (HC S104A)
T9 construct: anti-TROP2 Fab, CDR3 HC alanine mutant
Assay: competition ELISA, Fab on captured TROP2

Binder | IC50
VDFCALYHWPVCGL (mask peptide for the TROP2 Fab) [Peptide-61] | 1830 nM
VDFCGLYHWPICYQ (mask peptide for the TROP2 Fab) [Peptide-8] | 1250 nM
VDFCALYHWPICYQ (mask peptide for the TROP2 Fab) [Peptide-43] | 510 nM
VEFCAIYSWPICKI (mask peptide for the TROP2 Fab) [Peptide-46] | 11500 nM
VDFCAIYSWPICKI (mask peptide for the TROP2 Fab) [Peptide-50] | 1540 nM

Target: T10, TBD-11 (HC R98A)
T10 construct: anti-TROP2 Fab, CDR3 HC alanine mutant
Assay: competition ELISA, Fab on captured TROP2

Binder | IC50
VDFCALYHWPVCGL (mask peptide for the TROP2 Fab) [Peptide-61] | 12200 nM
VDFCGLYHWPICYQ (mask peptide for the TROP2 Fab) [Peptide-8] | 940 nM
VDFCALYHWPICYQ (mask peptide for the TROP2 Fab) [Peptide-43] | 870 nM
VEFCAIYSWPICKI (mask peptide for the TROP2 Fab) [Peptide-46] | 22300 nM
VDFCAIYSWPICKI (mask peptide for the TROP2 Fab) [Peptide-50] | 1970 nM

Target: T2, Human TROP2 Full length
Assay: cell-based or functional assay

Binder | H292 Cytotoxicity EC50 (pM) | HCT116 Cytotoxicity EC50 (pM)
B1 | > 100000 pM | –
B2 | 13700 pM | > 100000 pM
B3 | 12700 pM | –
B4 | 47000 pM | –
B5 | 98300 pM | –

Target: T3, Cyno TROP2 Full length
Assay: cell-based or functional assay

Binder | CyTROP2 HEK293 EC50 (pM)
B1 | 79300 pM
B2 | 665 pM
B3 | 1220 pM
B4 | 5130 pM
B5 | 37700 pM
